Test results published in publication PMC8345109, “Optimization of New Catalytic Topoisomerase II Inhibitors as an Anti-Cancer Therapy” (Cancers, 2021).

What was measured:
[1] = target: TOP2B full-length (Homo sapiens, UniProt Q02880 1-1626); assay: EMSA; 200 uM ICRF193; FP: 20 mM HEPES-NaOH pH 7.4, 2 mM DTT, 3 mM MgCl2, 0.05% NP-40, protease inhibitors, room temperature 20 min; EMSA buffer not in material; conditions: protein: recombinant; label: IRDye700 (printed IRDay700); blunt; self-complementary 20-mer, 2 copies
Sequence of TOP2B full-length (Q02880 whole entry): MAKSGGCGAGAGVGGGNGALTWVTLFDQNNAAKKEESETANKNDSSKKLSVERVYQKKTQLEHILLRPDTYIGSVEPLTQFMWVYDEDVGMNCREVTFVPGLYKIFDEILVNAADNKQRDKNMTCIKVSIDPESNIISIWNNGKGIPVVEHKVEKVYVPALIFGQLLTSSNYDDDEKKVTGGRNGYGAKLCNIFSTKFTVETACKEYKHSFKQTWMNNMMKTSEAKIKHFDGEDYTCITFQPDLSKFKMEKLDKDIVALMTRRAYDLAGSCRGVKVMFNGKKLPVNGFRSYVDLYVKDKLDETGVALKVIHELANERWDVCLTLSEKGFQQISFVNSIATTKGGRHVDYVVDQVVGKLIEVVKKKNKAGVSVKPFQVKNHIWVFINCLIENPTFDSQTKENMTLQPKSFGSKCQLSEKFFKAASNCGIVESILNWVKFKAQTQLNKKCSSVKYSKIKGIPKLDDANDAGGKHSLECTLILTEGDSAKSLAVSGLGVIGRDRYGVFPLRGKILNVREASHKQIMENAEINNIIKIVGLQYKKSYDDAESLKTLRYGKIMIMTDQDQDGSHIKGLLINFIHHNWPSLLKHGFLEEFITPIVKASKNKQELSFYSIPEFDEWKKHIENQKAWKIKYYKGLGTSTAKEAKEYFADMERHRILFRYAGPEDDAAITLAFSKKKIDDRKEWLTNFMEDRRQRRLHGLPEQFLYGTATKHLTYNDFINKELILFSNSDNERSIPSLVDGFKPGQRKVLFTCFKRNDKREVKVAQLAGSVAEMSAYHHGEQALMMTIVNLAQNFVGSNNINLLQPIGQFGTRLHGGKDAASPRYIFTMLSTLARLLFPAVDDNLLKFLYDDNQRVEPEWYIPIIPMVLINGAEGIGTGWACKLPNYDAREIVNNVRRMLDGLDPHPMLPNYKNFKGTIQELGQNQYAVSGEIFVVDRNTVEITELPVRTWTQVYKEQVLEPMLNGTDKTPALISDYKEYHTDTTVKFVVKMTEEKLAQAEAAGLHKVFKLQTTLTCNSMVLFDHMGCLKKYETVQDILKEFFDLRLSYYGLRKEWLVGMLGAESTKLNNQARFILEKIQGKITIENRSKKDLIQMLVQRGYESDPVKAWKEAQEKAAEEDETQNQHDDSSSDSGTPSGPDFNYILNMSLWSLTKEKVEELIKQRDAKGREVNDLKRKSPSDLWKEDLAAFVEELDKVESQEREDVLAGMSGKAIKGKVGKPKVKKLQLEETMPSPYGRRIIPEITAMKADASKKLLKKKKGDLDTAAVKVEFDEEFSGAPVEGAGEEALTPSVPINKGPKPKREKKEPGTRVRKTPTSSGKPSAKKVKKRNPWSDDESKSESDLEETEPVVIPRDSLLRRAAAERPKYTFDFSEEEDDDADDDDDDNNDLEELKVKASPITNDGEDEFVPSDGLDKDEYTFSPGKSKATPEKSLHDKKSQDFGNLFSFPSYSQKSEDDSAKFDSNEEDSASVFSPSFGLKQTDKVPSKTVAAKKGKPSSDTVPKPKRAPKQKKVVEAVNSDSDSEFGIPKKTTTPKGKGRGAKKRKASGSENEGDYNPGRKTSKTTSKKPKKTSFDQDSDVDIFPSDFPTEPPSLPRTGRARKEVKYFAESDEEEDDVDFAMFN

[2] = target: TOP2A full-length (Homo sapiens, UniProt P11388 1-1531); assay: as above; conditions: protein: recombinant; label: IRDye700 (printed IRDay700); blunt; self-complementary 20-mer, 2 copies
Sequence of TOP2A full-length (P11388 whole entry): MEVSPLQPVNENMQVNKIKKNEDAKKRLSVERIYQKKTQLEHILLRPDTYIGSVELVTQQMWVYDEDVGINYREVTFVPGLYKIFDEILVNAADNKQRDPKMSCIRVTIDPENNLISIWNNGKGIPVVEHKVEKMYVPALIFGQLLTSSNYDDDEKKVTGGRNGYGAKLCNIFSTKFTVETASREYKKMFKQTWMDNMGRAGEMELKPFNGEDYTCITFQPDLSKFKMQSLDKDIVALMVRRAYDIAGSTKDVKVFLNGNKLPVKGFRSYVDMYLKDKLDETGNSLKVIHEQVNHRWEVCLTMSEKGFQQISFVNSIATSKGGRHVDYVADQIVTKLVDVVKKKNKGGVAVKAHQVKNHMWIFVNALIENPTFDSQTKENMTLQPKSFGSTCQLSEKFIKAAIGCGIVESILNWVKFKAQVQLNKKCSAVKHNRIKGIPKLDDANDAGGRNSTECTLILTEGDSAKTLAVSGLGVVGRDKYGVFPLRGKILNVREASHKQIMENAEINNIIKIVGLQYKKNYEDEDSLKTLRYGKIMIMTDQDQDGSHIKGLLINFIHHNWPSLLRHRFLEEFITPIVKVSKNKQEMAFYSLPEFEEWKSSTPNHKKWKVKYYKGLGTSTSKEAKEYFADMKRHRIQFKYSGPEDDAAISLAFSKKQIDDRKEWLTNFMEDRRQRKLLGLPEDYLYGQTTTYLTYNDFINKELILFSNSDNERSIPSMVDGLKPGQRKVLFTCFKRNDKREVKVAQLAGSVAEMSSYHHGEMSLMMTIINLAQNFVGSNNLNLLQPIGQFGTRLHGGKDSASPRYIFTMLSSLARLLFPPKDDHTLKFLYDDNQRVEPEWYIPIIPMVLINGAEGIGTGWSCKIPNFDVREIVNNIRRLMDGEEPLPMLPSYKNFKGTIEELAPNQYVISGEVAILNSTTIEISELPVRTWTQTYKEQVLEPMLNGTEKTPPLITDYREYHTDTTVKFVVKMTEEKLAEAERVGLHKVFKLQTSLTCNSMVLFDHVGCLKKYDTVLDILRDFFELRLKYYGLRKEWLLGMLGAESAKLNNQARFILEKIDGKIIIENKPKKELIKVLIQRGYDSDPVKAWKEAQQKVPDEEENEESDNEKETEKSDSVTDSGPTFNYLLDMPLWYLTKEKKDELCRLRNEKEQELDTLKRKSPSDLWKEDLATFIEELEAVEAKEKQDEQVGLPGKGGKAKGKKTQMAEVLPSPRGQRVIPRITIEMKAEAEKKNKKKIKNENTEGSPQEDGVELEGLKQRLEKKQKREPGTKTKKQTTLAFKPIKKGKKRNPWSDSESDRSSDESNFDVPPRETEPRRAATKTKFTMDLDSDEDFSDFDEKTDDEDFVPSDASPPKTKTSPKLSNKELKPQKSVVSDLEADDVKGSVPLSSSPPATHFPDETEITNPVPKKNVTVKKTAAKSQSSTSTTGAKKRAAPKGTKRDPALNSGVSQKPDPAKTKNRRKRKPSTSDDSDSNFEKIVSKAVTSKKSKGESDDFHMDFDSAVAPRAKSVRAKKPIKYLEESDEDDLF

[3] = target: TOP2A(431-1193) (Homo sapiens, UniProt P11388 431-1193); assay: EMSA; merbarone; FP: 20 mM HEPES-NaOH pH 7.4, 2 mM DTT, 3 mM MgCl2, 0.05% NP-40, protease inhibitors, room temperature 20 min; EMSA buffer not in material; conditions: protein: recombinant; tags: N-terminal 6xHis (pET28a); label: IRDye700 (printed IRDay700); blunt; self-complementary 20-mer, 2 copies
Sequence of TOP2A(431-1193) (P11388 431-1193): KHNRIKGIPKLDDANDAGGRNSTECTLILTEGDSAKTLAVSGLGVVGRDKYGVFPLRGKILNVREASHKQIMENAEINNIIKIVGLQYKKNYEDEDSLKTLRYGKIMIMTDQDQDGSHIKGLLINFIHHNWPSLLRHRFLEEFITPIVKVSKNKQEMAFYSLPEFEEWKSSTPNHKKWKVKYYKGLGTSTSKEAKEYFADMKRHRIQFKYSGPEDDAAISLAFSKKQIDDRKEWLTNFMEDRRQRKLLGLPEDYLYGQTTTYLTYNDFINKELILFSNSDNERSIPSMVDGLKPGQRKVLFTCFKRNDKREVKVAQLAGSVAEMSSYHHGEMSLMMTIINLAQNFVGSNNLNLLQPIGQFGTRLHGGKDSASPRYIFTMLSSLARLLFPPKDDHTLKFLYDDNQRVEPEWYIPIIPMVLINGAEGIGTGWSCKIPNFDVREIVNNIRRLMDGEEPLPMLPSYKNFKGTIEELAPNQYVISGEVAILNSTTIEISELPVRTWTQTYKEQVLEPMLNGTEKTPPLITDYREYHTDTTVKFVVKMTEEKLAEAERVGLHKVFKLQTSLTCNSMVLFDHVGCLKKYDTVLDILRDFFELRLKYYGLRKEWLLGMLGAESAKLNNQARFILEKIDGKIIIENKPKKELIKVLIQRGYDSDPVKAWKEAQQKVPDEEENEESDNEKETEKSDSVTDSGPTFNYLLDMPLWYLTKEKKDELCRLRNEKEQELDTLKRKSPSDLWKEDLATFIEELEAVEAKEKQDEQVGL

Measured: binding result

B1: 5ZRF DNA oligo (IRDye700) (dsDNA)
DNA 1: AGCCGAGCTGCAGCTCGGCT
DNA 2: AGCCGAGCTGCAGCTCGGCT
binds: [1] | [2] | [3]
